This note sets out measurements from patent publication US20190015483A1 (CSL BEHRING RECOMBINANT FACILITY, published 2019).

T1: recombinant Factor VIII (CSL627, rVIII-SingleChain) (Homo sapiens (Human), UniProt P00451 20-2351)
T1 construct: also called FVIII
T1 sequence: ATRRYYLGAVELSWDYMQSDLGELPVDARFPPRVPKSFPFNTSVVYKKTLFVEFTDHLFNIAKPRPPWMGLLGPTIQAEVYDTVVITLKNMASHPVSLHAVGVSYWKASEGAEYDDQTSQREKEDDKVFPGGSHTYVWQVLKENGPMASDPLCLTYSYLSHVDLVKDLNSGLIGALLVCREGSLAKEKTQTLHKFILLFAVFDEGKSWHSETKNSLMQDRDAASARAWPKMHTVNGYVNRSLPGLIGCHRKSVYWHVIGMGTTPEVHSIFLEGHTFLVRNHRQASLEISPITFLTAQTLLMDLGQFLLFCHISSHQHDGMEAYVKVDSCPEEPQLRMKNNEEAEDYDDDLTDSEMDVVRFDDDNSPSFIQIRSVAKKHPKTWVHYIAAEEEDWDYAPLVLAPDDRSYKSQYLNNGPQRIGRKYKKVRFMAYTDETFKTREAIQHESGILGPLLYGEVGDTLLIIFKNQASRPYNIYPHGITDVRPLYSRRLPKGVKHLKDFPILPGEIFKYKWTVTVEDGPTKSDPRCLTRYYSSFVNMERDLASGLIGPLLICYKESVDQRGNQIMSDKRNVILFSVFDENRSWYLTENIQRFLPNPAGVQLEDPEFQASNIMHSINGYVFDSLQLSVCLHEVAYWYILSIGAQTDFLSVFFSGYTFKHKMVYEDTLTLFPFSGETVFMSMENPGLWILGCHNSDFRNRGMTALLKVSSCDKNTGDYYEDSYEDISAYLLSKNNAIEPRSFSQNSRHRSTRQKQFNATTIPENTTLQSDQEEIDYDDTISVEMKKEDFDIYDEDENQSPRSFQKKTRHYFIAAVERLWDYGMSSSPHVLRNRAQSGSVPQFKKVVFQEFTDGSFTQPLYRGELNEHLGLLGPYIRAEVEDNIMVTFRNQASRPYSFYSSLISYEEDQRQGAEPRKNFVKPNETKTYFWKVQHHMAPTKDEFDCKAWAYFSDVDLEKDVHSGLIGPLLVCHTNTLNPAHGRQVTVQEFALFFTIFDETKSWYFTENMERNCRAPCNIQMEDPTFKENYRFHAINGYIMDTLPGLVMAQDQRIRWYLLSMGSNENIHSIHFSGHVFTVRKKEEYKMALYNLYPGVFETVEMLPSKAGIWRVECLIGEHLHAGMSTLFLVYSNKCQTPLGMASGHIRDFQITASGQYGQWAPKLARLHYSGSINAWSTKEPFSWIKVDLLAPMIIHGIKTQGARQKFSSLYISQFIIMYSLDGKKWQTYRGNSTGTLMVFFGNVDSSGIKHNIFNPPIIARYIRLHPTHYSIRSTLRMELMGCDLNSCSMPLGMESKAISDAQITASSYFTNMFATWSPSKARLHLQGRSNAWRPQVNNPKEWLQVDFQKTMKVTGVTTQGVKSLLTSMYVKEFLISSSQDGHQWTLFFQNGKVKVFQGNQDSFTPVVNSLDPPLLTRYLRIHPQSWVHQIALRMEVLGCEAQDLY

B1: Hu-vWF[764-1270]-8His S766W-S806Q (other)
chain: SLWCRPPMVKLVCPADNLRAEGLECTKTCQNYDLECMSMGCVQGCLCPPGMVRHENRCVALERCPCFHQGKEYAPGETVKIGCNTCVCRDRKWNCTDHVCDATCSTIGMAHYLTFDGLKYLFPGECQYVLVQDYCGSNPGTFRILVGNKGCSHPSVKCKKRVTILVEGGEIELFDGEVNVKRPMKDETHFEVVESGRYIILLLGKALSVVWDRHLSISVVLKQTYQEKVCGLCGNFDGIQNNDLTSSNLQVEEDPVDFGNSWKVSSQCADTRKVPLDSSPATCHNNIMKQTMVDSSCRILTSDVFQDCNKLVDPEPYLDVCIYDTCSCESIGDCACFCDTIAAYAHVCAQHGKVVTWRTATLCPQSCEERNLRENGYECEWRYNSCAPACQVTCQHPEPLACPVQCVEGCHAHCPPGKILDELLQTCVDPEDCPVCEVAGRRFASGKKVTLNPSDPEHCQICHCDVVNLTCEACQEPGGLVVPPTDAPVSPTTLYVEDISEPPLHDFHHHHHHHH
B2: Hu-vWF[764-1270]-8His S766W-S806Y (other)
chain: SLWCRPPMVKLVCPADNLRAEGLECTKTCQNYDLECMSMGCVYGCLCPPGMVRHENRCVALERCPCFHQGKEYAPGETVKIGCNTCVCRDRKWNCTDHVCDATCSTIGMAHYLTFDGLKYLFPGECQYVLVQDYCGSNPGTFRILVGNKGCSHPSVKCKKRVTILVEGGEIELFDGEVNVKRPMKDETHFEVVESGRYIILLLGKALSVVWDRHLSISVVLKQTYQEKVCGLCGNFDGIQNNDLTSSNLQVEEDPVDFGNSWKVSSQCADTRKVPLDSSPATCHNNIMKQTMVDSSCRILTSDVFQDCNKLVDPEPYLDVCIYDTCSCESIGDCACFCDTIAAYAHVCAQHGKVVTWRTATLCPQSCEERNLRENGYECEWRYNSCAPACQVTCQHPEPLACPVQCVEGCHAHCPPGKILDELLQTCVDPEDCPVCEVAGRRFASGKKVTLNPSDPEHCQICHCDVVNLTCEACQEPGGLVVPPTDAPVSPTTLYVEDISEPPLHDFHHHHHHHH
B3: Hu-vWF[764-1270]-8His S766Y-P769D (other)
chain: SLYCRDPMVKLVCPADNLRAEGLECTKTCQNYDLECMSMGCVSGCLCPPGMVRHENRCVALERCPCFHQGKEYAPGETVKIGCNTCVCRDRKWNCTDHVCDATCSTIGMAHYLTFDGLKYLFPGECQYVLVQDYCGSNPGTFRILVGNKGCSHPSVKCKKRVTILVEGGEIELFDGEVNVKRPMKDETHFEVVESGRYIILLLGKALSVVWDRHLSISVVLKQTYQEKVCGLCGNFDGIQNNDLTSSNLQVEEDPVDFGNSWKVSSQCADTRKVPLDSSPATCHNNIMKQTMVDSSCRILTSDVFQDCNKLVDPEPYLDVCIYDTCSCESIGDCACFCDTIAAYAHVCAQHGKVVTWRTATLCPQSCEERNLRENGYECEWRYNSCAPACQVTCQHPEPLACPVQCVEGCHAHCPPGKILDELLQTCVDPEDCPVCEVAGRRFASGKKVTLNPSDPEHCQICHCDVVNLTCEACQEPGGLVVPPTDAPVSPTTLYVEDISEPPLHDFHHHHHHHH
B4: Hu-vWF[764-1270]-8His S766W-S806W (other)
chain: SLWCRPPMVKLVCPADNLRAEGLECTKTCQNYDLECMSMGCVWGCLCPPGMVRHENRCVALERCPCFHQGKEYAPGETVKIGCNTCVCRDRKWNCTDHVCDATCSTIGMAHYLTFDGLKYLFPGECQYVLVQDYCGSNPGTFRILVGNKGCSHPSVKCKKRVTILVEGGEIELFDGEVNVKRPMKDETHFEVVESGRYIILLLGKALSVVWDRHLSISVVLKQTYQEKVCGLCGNFDGIQNNDLTSSNLQVEEDPVDFGNSWKVSSQCADTRKVPLDSSPATCHNNIMKQTMVDSSCRILTSDVFQDCNKLVDPEPYLDVCIYDTCSCESIGDCACFCDTIAAYAHVCAQHGKVVTWRTATLCPQSCEERNLRENGYECEWRYNSCAPACQVTCQHPEPLACPVQCVEGCHAHCPPGKILDELLQTCVDPEDCPVCEVAGRRFASGKKVTLNPSDPEHCQICHCDVVNLTCEACQEPGGLVVPPTDAPVSPTTLYVEDISEPPLHDFHHHHHHHH
B5: Hu-vWF[764-1270]-8His S766W-S806V (other)
chain: SLWCRPPMVKLVCPADNLRAEGLECTKTCQNYDLECMSMGCVVGCLCPPGMVRHENRCVALERCPCFHQGKEYAPGETVKIGCNTCVCRDRKWNCTDHVCDATCSTIGMAHYLTFDGLKYLFPGECQYVLVQDYCGSNPGTFRILVGNKGCSHPSVKCKKRVTILVEGGEIELFDGEVNVKRPMKDETHFEVVESGRYIILLLGKALSVVWDRHLSISVVLKQTYQEKVCGLCGNFDGIQNNDLTSSNLQVEEDPVDFGNSWKVSSQCADTRKVPLDSSPATCHNNIMKQTMVDSSCRILTSDVFQDCNKLVDPEPYLDVCIYDTCSCESIGDCACFCDTIAAYAHVCAQHGKVVTWRTATLCPQSCEERNLRENGYECEWRYNSCAPACQVTCQHPEPLACPVQCVEGCHAHCPPGKILDELLQTCVDPEDCPVCEVAGRRFASGKKVTLNPSDPEHCQICHCDVVNLTCEACQEPGGLVVPPTDAPVSPTTLYVEDISEPPLHDFHHHHHHHH
B6: Hu-vWF[764-1270]-8His S766W-S806T (other)
chain: SLWCRPPMVKLVCPADNLRAEGLECTKTCQNYDLECMSMGCVTGCLCPPGMVRHENRCVALERCPCFHQGKEYAPGETVKIGCNTCVCRDRKWNCTDHVCDATCSTIGMAHYLTFDGLKYLFPGECQYVLVQDYCGSNPGTFRILVGNKGCSHPSVKCKKRVTILVEGGEIELFDGEVNVKRPMKDETHFEVVESGRYIILLLGKALSVVWDRHLSISVVLKQTYQEKVCGLCGNFDGIQNNDLTSSNLQVEEDPVDFGNSWKVSSQCADTRKVPLDSSPATCHNNIMKQTMVDSSCRILTSDVFQDCNKLVDPEPYLDVCIYDTCSCESIGDCACFCDTIAAYAHVCAQHGKVVTWRTATLCPQSCEERNLRENGYECEWRYNSCAPACQVTCQHPEPLACPVQCVEGCHAHCPPGKILDELLQTCVDPEDCPVCEVAGRRFASGKKVTLNPSDPEHCQICHCDVVNLTCEACQEPGGLVVPPTDAPVSPTTLYVEDISEPPLHDFHHHHHHHH
B7: Hu-vWF[764-1270]-8His S766W-S806R (other)
chain: SLWCRPPMVKLVCPADNLRAEGLECTKTCQNYDLECMSMGCVRGCLCPPGMVRHENRCVALERCPCFHQGKEYAPGETVKIGCNTCVCRDRKWNCTDHVCDATCSTIGMAHYLTFDGLKYLFPGECQYVLVQDYCGSNPGTFRILVGNKGCSHPSVKCKKRVTILVEGGEIELFDGEVNVKRPMKDETHFEVVESGRYIILLLGKALSVVWDRHLSISVVLKQTYQEKVCGLCGNFDGIQNNDLTSSNLQVEEDPVDFGNSWKVSSQCADTRKVPLDSSPATCHNNIMKQTMVDSSCRILTSDVFQDCNKLVDPEPYLDVCIYDTCSCESIGDCACFCDTIAAYAHVCAQHGKVVTWRTATLCPQSCEERNLRENGYECEWRYNSCAPACQVTCQHPEPLACPVQCVEGCHAHCPPGKILDELLQTCVDPEDCPVCEVAGRRFASGKKVTLNPSDPEHCQICHCDVVNLTCEACQEPGGLVVPPTDAPVSPTTLYVEDISEPPLHDFHHHHHHHH
B8: Hu-vWF[764-1270]-8His S766Y-P769A (other)
chain: SLYCRAPMVKLVCPADNLRAEGLECTKTCQNYDLECMSMGCVSGCLCPPGMVRHENRCVALERCPCFHQGKEYAPGETVKIGCNTCVCRDRKWNCTDHVCDATCSTIGMAHYLTFDGLKYLFPGECQYVLVQDYCGSNPGTFRILVGNKGCSHPSVKCKKRVTILVEGGEIELFDGEVNVKRPMKDETHFEVVESGRYIILLLGKALSVVWDRHLSISVVLKQTYQEKVCGLCGNFDGIQNNDLTSSNLQVEEDPVDFGNSWKVSSQCADTRKVPLDSSPATCHNNIMKQTMVDSSCRILTSDVFQDCNKLVDPEPYLDVCIYDTCSCESIGDCACFCDTIAAYAHVCAQHGKVVTWRTATLCPQSCEERNLRENGYECEWRYNSCAPACQVTCQHPEPLACPVQCVEGCHAHCPPGKILDELLQTCVDPEDCPVCEVAGRRFASGKKVTLNPSDPEHCQICHCDVVNLTCEACQEPGGLVVPPTDAPVSPTTLYVEDISEPPLHDFHHHHHHHH

This assay deals with T1, recombinant Factor VIII (CSL627, …). Kind of assay: SPR, anti-His capture, FVIII injected, 37 C. The procedure, abridged:
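His-tagged mutants were captured directly from culture medium onto an anti-His surface (14,000 RU) at 40-150 RU. FVIII at 1 nM was injected for 5 min, followed by 5 min dissociation. Double-referenced sensorgrams were fitted to a 1:1 kinetic model.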
For B1, the Kd (as a rule, the constant that tells how readily two partners part at equilibrium) came to 0.407 nM; the koff (usually the first-order rate constant of dissociation) was found to be 0.00176 s⁻¹; the kon (as a rule, the rate constant with which the complex forms) came to 4.33e+06 M⁻¹ s⁻¹.

Take B2: the binding result was “no binding”.

With B3, the dissociation constant (Kd) came out at 0.165 nM, the koff was 0.000763 s⁻¹ and the kon stood at 4.63e+06 M⁻¹ s⁻¹.

Consider B4, for which the binding result is “no binding”.

In the case of B5, the equilibrium dissociation constant (Kd) is 0.149 nM, the koff came to 0.000619 s⁻¹ and the association rate constant (kon) was 4.17e+06 M⁻¹ s⁻¹.

Regarding B6, the Kd was found to be 0.125 nM, the dissociation rate constant (koff) came out at 0.000654 s⁻¹ and the on-rate (kon) was 5.25e+06 M⁻¹ s⁻¹.

Regarding B7, the Kd stood at 1.29 nM, the off-rate (koff) amounted to 0.0107 s⁻¹ and the on-rate (kon) stood at 8.28e+06 M⁻¹ s⁻¹.

On to B8, for which the equilibrium dissociation constant (Kd) stood at 0.106 nM, the koff stood at 0.000519 s⁻¹ and the kon amounted to 4.9e+06 M⁻¹ s⁻¹.
